From the DeepSol protein solubility set

Assay: soluble on expression in E. coli; label from the status in PepcDB or PDB records

| Sequence | soluble on expression in E. coli |
| --- | --- |
| MVSFKRYELPPLPYNYNALEPYIIEEIMKLHHQKHHNTYVKGANAALEKIEKHLKGEIQIDVRAVMRDFSFNYAGHIMHTIFWPNMAPPGKGGGTPGGRVADLIEKQFGGFEKFKALFSAAAKTVEGVGWGVLAFDPLTEELRILQVEKHNVLMTAGLVPILVIDVWEHAYYLQYKNDRGSYVENWWNVVNWDDVEKRLEQALNNAKPLYLLPQ | soluble |
| QRKNNNKRWYFTREQLENSPSRRFGLDPDKELSYRQQAANLLQDMGQRLNVSQLTINTAIVYMHRFYMIQSFTRFHRNSVAPAALFLAAKVEEQPKKLEHVIKVAHTCLHPQESLPDTRSEAYLQQVQDLVILESIILQTLGFELTIDHPHTHVVKCTQLVRASKDLAQTSYFMATNSLHLTTFSLQYTPPVVACVCIHLACKWSNWEIPVSTDGKHWWEYVDATVTLELLDELTHEFLQILEKTPNRLKRIWNWRACQAAKKT | soluble |
| MADPWLSIIGLGEDGPAGLPDASRAALEAAEVVVGGPRHLALVDARARGMEWPVPFDPAPVLALRGRPVAVLASGDPFWHGAGGSLAAALSPGEWRAYPAPGVVALAAARLGWRQEELLALGLHAAPFERLLPELAPGRRGVCTLRDGPAAGALAAFLAAEGWGESRLWVMEALGGPRERVRATTAGAFSLTDVAAPVTVAFEAEGGRAQPRSAGLPDSLFAHDGQITKAPVRALTLAALAPRRGEILWDLGAGSGSVSVEWCLAGGRAVAVELRPERAANIRANAARFALPLEVVEGRALDNLPALPAPDAIFVGGGFDEALFAALPPTARLVVNAVTLETEALLAALQARHGGELLRIELARAAPLGRMRGWEAARPVVQWSLVR | not soluble |
| MGSDKIHHHHHHMSSICQGTWDCQNCPKAVDNAIAHIIHPRGYHQPARKCEENFILFLIRGEVLVNSQEYAGTMLRAGEFILQAIGSKFEMLAMTECECIYYRFIQPELFCDFRFNHIMKEVSSPLIYSPLKIIPELKYFLDGSKSYLSESKVCRDLLSLKRKELAFVLGYYYSDYDLASLVHPLSKYTSTFQYFILQNYKKVKTVEELAQLGGYTVSTLRRIFNNVFHEPVYEWMQARRKEGILDELLNTNNSISEICYKYGFESLPHFSNFCKKFFGASPRMLRTNKKTI | not soluble |
| AIAAHVRTYNPRVRVGNWKEDVTLEEETSKEFILQKDRGELTVQKEGALKQSILKPVSLSVSQDGFLHFGDTVMLVNCGDGGHMQRSPCVLSIIADSSNVTSHSQTNTGPHLLGPLQVGGAHSMDPCVRNTFIIISVDGSSDGEVVRYDQSFALKTTGGFAGELFLASDHKSFQKCAKKSRLQELSLVEEFDFLCWWKVLYFDPQDRLENEGYPVQVNNKVLISHCKTNQCLAALSNHILWSQFGKEYELTAHTFLDSHKAEQDNNHWLFSTAHPANQSQSLLQLQQEEHKENQEDTQVKDCS | soluble |
| MASNYNSGLKIGAWVGTQPSESAIKSFQELQGRKLDIVHQFINWSTDFSWVRPYADAVYNNGSILMITWEPWEYNTVDIKNGKADAYITRMAQDMKAYGKEIWLRPLHEANGDWYPWAIGYSSRVNTNETYIAAFRHIVDIFRANGATNVKWVFNVNCDNVGNGTSYLGHYPGDNYVDYTSIDGYNWGTTQSWGSQWQSFDQVFSRAYQALASINKPIIIAEFASAEIGGNKARWITEAYNSIRTSYNKVIAAVWFHENKETDWRINSSPEALAAYREAIGALEHHHHHH | soluble |
| MLTGLKIAVIGGDARQLEIIRKLTEQQADIYLVGFDQLDHGFTGAVKCNIDEIPFQQIDSIILPVSATTGEGVVSTVFSNEEVVLKQDHLDRTPAHCVIFSGISNAYLENIAAQAKRKLVKLFERDDIAIYNSIPTVEGTIMLAIQHTDYTIHGSQVAVLGLGRTGMTIARTFAALGANVKVGARSSAHLARITEMGLVPFHTDELKEHVKDIDICINTIPSMILNQTVLSSMTPKTLILDLASRPGGTDFKYAEKQGIKALLAPGLPGIVAPKTAGQILANVLSKLLAEIQAEEGK | soluble |
| GAMADRDRLRPPLDERSLRDQLIGAGSGWRQLDVVAQTGSTNADLLARAASGADIDGVVLIAEHQTAGRGRHGRGWAATARAQIILSVGVRVVDVPVQAWGWLSLAAGLAVLDSVAPLIAVPPAETGLKWPNDVLARGGKLAGILAEVAQPFVVLGVGLNVTQAPEEVDPDATSLLDLGVAAPDRNRIASRLLRELEARIIQWRNANPQLAADYRARSLTIGSRVRVELPGGQDVVGIARDIDDQGRLCLDVGGRTVVVSAGDVVHLR | soluble |
| MGSDKIHHHHHHMRIAIIEDEPLAAEKLAGYIQRQWPEAKIIATLSSVDAVIEFFNQPQNLDLLFSDIELSDGQVFSALEQIDVPCPVIFTTSYNDYWMNAFQNQGIEYLLKPFSFKRFSQAVANYQALFEQRSKIETTSFKQRFIIKQQGASEMLNVAEIHCFRAANGTILAGDKQGQYHILSDNNLSQLEAQLDPKVFFRINRADIININSLIKFETYTKETLALYIKGYSEALVTSKTRTANFRKWLEA | not soluble |
| MVERLTIIRGVEKFELQTKTARWVLAKEEGYSPVQMLVSAIGACGGYVYQSVLENSHIPFEFEKIEVTYSREVERRAQPLKQVTILFYVTVPEAFQERATRCLKLVSPNCPVIQSLAERITVEETVVFKK | not soluble |
| MNKELTFNDLPMVVAQLRDEVVGMKQMIVSLQSQNKPHKANTHIPMSVEEASAYLKMPMATLYMKLGNGSIPATKPGKRYCLYQDELDKWLETNRKNPVPLTAEEENAAILAGNKRKPKPLNW | not soluble |
| MDKLNKITVPASQKLRQLQKMVHDIKNNEGGIMNKIKKLKVKAPPSVPRRDYASESPADEEQQWSDDFDSDYENPDEHSDSEMYVMPAEENADDSYEPPPVEQETRPVHPALPFARGEYIDNRSSQRHSPPFSKTLPSKPSWPSEKARLTSTLPALTALQKPQVPPKPKGLLEDEADYVVPVEDNDENYIHPTESSSPPPEKAPMVNRSTKPNSSTPASPPGTASGRNSGAWETKSPPPAAPSPLPRAGKKPTTPLKTTPVASQQNASSVCEEKPIPAERHRGSSHRQEAVQSPVFPPAQKQIHQKPIPLPRFTEGGNPTVDGPLPSFSSNSTISEQEAGVLCKPWYAGACDRKSAEEALHRSNKDGSFLIRKSSGHDSKQPYTLVVFFNKRVYNIPVRFIEATKQYALGRKKNGEEYFGSVAEIIRNHQHSPLVLIDSQNNTKDSTRLKYAVKVS | not soluble |
| MVTFKPKVLHFVNATNLNQVDGTGTIVNEWIKAAGGQNALKQKGNMISVTTETLAKSDPDVIIVGSATTAEARAALKKNAVLSKLTAVKKNRVYGNPQGTFPWDRYSAEEALQVLWAAKKLHPDQFQLEHHHHHH | not soluble |
| MASAVGEKMLDDFEGVLNWGSYSGEGAKVSTKIVSGKTGNGMEVSYTGTTDGYWGTVYSLPDGDWSKWLKISFDIKSVDGSANEIRFMIAEKSINGVGDGEHWVYSITPDSSWKTIEIPFSSFRRRLDYQPPGQDMSGTLDLDNIDSIHFMYANNKSGKFVVDNIKLIGALEHHHHHH | soluble |
| MLRLSAPGQLDDDLCLLGDVQVPVFLLRLGEASWALVEGGISRDAELVWADLCRWVADPSQVHYWLITHKHYDHCGLLPYLCPRLPNVQVLASERTCQAWKSESAVRVVERLNRQLLRAEQRLPEACAWDALPVRAVADGEWLELGPRHRLQVIEAHGHSDDHVVFYDVRRRRLFCGDALGEFDEAEGVWRPLVFDDMEAYLESLERLQRLPTLLQLIPGHGGLLRGRLAADGAESAYTECLRLCRRLLWRQSMGESLDELSEELHRAWGGQSVDFLPGELHLGSMRRMLEILSRQALPLD | not soluble |
| GGQIVHTETTEVVLCGDPLSGFGLQLQGGIFATETLSSPPLVCFIEPDSPAERCGLLQVGDRVLSINGIATEDGTMEEANQLLRDAALAHKVVLEVEFD | soluble |
| MEGMDPLAVLAESRLLPLLTVRGGEDLLGLARVLEEEGVGALEITLRTEKGLEALKALRKSGLLLGAGTVRSPKEAEAALEAGAAFLVSPGLLEEVAALAQARGVPYLPGVLTPTEVERALALGLSALKFFPAEPFQGVRVLRAYAEVFPEVRFLPTGGIKEEHLPHYAALPNLLAVGGSWLLQGNLEAVRAKVRAAKALLSPQAPG | soluble |
| MAHHHHHHMFLLCRTNLAKKIKDKIPYGVKQSQNYKDAKKQERLALEANRKLKESRGMLLDGKKNLFMCLRQNSDINWYRAGQILKHLEIHQRAKPDITPSLREKITNIANFVKKGR | soluble |
| MYLLEINVFEGLNKKELSMIEVAHAILEQHADVMDFSDLVNQIQNYLGKSDSEIRDQLAQFYTDLNIDGSFISLGDNRWGLRSWYPIDSIDEEVTHGLEEDEEDAPRRRKRKKVNAFITNPNDEDVIDYNDDDPEDAELTNDDEEDILYDDEEDEDEEIKAYNSDLQEIGADSDDDEEDIPQIEEDLTIIDDDDVEDEDDFDDEYSEE | not soluble |
| MATTKPYRVLLYYMYTTIENPEEFAAEHLEFCNSLELKGRILVAKEGINGTCSGTVEQTEKYMEAMNNDPRFDGIVFKIDEADGHAFKKMHVRPRPELVTLRLEDDINPHEITGKYLEPKDFYEAMKQEDTVIIDARNDYEFDLGHFKGAIKPDIESFRELPDWIRENKEVLEGKKILTYCTGGIRCEKFSGWLVREGYEDVSQLHGGIVTYGKDPEVQGELWDGQCYVFDERIAVPVNQKEHVIVGKDHFTGEPCERYVNCANPECNKKILCSEENEAKYLRACSHECRVSPRNRYVIQHELTEEQVAAALEQIEAGKLEHHHHHH | not soluble |
| MSEQPASLDPVSKQIIEQLQEDGRRSYSAIGKVVGLSEAAVRQRVQKLIDTGVTQIVAVTDPVQVGFSRQAMVGIRCSGDVTEIAARLADVDAIDYVVLTAGAYDILAEIVCENDDHLLAVLNKEIRTIPGVLGTETMVYLKLVKQQYDWGTR | not soluble |
| MSHLRIPANWKVKRSTPFFTKENVPAALLSHHNTAAGVFGQLCVMEGTVTYYGFANETATEPEVKVVINAGQFATSPPQYWHRVELSDDARFNIHFWVEEDHQGEEMYQQKKALEHHHHHH | soluble |
| MGSDKIHHHHHHSKATGRGSGGMIGGLVASKVDPDIMSNLINNRPTVLVTGTNGKSTTTRMLAAAMRSTYTVATNEGGDNMDAGIISALLAGRNASHVVLEVDELHVPAAIERLKPDALVLLNLSRDQLDRVGEINKIERVLRDAVRSRPEMTVIANCDDVLVTSVAFDAENVIWVGAGTGWQGESATCPRTESRILHDGRHWSAEKTLLDGRTFARPTPSWEVDGDTIHSPSGDLTLDLNLPGQANRGNAAQAIAASTVFNVPVSSALPAVNSVNNVAGRYSTITVGEHKVHLLLAKNPAGWQEALSMVDRTADGLVIVVNGQVADGEDLSWLWDVRFEDFENLSVKASGERGTDLAVRLTYAEIDHELISNPVDAIAACPPGRIEVLANYTAFRDLKKALEKGTEQ | not soluble |
